Experimental data as given in article PMC7542365 (mBio, 2020).

Target: T1, A/Brevig Mission/1/1918 H1N1 NA, soluble tetramer with His tag attached (influenza A virus A/Brevig …)
T1 chain: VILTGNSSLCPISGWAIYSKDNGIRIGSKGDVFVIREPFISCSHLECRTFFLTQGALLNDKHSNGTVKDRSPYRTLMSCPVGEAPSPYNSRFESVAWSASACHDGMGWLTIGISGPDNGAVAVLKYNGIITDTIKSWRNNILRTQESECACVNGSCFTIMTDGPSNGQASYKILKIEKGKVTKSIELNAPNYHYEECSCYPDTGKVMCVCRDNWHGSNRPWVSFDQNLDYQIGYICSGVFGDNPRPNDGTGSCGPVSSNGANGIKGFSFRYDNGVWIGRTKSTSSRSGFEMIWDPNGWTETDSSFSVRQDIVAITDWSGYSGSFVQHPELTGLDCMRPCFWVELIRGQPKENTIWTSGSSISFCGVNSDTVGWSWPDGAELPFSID
Test: SPR

B1: Z2B3-D102R Fab (Fab, V domains shown)
VH: EVQLVQSGAEVKKPGSSVKVSCKASGGPFSSYGFSWVRQAPGQGLEWMGGIIPVYGTTNYAQKFQGRVTITADESTSTAYMELSSLKSEDTAVYYCARDLQRTPMVDRIIGSYYYYNGLDVWGQGTTVTVSS
VL: QSVLTQPASVSGSPGQSITISCTGASSDVGDYNYVSWYQQHPGKAPKLMIYDVSNRPSGVSNRFSGSKSGDTASLTISGLQAEDEADYYCSSYTRSSSVVFGGGTKLTVL
B1 was tested, and the Kd was 1670 nM.
